The results in this text go back to PMC9596277.

For assay [1], the target named is digalactosylated afucosylated (G2) palivizumab glycoform (human). Kind of assay: SPR; Biacore T200, 25°C, PBS with 0.05% Tween 20 and 3.4 mM EDTA; palivizumab analogues captured on immobilised Protein A (CM-5); FcγRIIIA injected, single-cycle kinetics, 2.3 nM to 0.56 µM; 1:1 binding model, KD from the ratio of the rate constants; three repeats. (In general: Surface plasmon resonance follows binding to a sensor surface in real time, without labels.)
digalactosylated afucosylated (G2) palivizumab glycoform (human), sequence (heavy, as listed by the source, chain 1 of 2): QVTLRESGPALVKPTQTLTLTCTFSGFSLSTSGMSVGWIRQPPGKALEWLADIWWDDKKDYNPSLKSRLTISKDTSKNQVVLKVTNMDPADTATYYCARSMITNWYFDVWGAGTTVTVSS
digalactosylated afucosylated (G2) palivizumab glycoform (human), sequence (light, as listed by the source, chain 2 of 2): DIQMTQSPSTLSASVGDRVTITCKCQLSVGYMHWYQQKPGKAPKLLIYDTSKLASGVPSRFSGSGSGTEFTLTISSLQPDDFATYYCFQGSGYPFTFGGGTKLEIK

In assay [2] the target is afucosylated agalactosylated (G0) palivizumab glycoform (human). The description is as above.
afucosylated agalactosylated (G0) palivizumab glycoform (human), sequence (heavy, as listed by the source, chain 1 of 2): as the sequence (heavy, as listed by the source, chain 1 of 2) above
afucosylated agalactosylated (G0) palivizumab glycoform (human), sequence (light, as listed by the source, chain 2 of 2): as the sequence (light, as listed by the source, chain 2 of 2) above
In assay [3] the target is afucosylated palivizumab glycoform monogalactosylated at the α6 antenna (G1(6)) (human). The assay is described as above.
afucosylated palivizumab glycoform monogalactosylated at the α6 antenna (G1(6)) (human), sequence (heavy, as listed by the source, chain 1 of 2): as the sequence (heavy, as listed by the source, chain 1 of 2) above
afucosylated palivizumab glycoform monogalactosylated at the α6 antenna (G1(6)) (human), sequence (light, as listed by the source, chain 2 of 2): as the sequence (light, as listed by the source, chain 2 of 2) above
Assay [4] concerns the target afucosylated palivizumab glycoform monogalactosylated at the α3 antenna (G1(3)) (human). The assay is described as above.
Assay [5] concerns the target commercially available palivizumab (Synagis) (human). The assay is described as follows: SPR; same set-up as the kinetic SPR (palivizumab captured on Protein A, FcγRIIIA injected); value told as steady state binding.
In assay [6] the target is FcγRIIIa (CD16A) V176 on NK92-GFP-CD16A cells (V variant) (human) (UniProt P08637).
Assay [7] concerns the target FcγRIIIa (CD16A) F176 on NK92-GFP-CD16A cells (F variant) (human) (UniProt P08637). The assay is described as follows: flow cytometry on cells; NK92-GFP-CD16A cells (V or F variant) with 2.5-fold serial dilutions of palivizumab glycoforms in 1% BSA/PBS, 4°C, 30 min; detected with Alexa Fluor 647 anti-human IgG F(ab')2-specific fragment; % GFP+AF647+ cells. (A flow cytometer gives signals particle by particle.)

afucosylated palivizumab glycoform monogalactosylated at the α3 antenna (G1(3)) (human), sequence (heavy, as listed by the source, chain 1 of 2): as the sequence (heavy, as listed by the source, chain 1 of 2) above
afucosylated palivizumab glycoform monogalactosylated at the α3 antenna (G1(3)) (human), sequence (light, as listed by the source, chain 2 of 2): as the sequence (light, as listed by the source, chain 2 of 2) above
commercially available palivizumab (Synagis) (human), sequence (heavy, as listed by the source, chain 1 of 2): as the sequence (heavy, as listed by the source, chain 1 of 2) above
commercially available palivizumab (Synagis) (human), sequence (light, as listed by the source, chain 2 of 2): as the sequence (light, as listed by the source, chain 2 of 2) above

The Kd is the concentration at which binding is half-saturated. For the substance “FcγRIIIA CD16A high binding (V) variant, National Research Council (Canada) (from UniProt P08637 17-254) (receptor)”, the Kd in assay [1] is 5.9 nM; in assay [2], 110 nM; in assay [3], 6 nM; in assay [4] it was 110 nM; in assay [5] it was 1000 nM.

As to “afucosylated palivizumab glycoform monogalactosylated at the α6 antenna (G1(6)) (antibody)”, the ADCC reporter assay (Jurkat T-cell luciferase reporter cells, CD16A V variant; RSV-infected Hep2 cells), activity against the G0 glycoform in assay [6] came to 2 fold.

For the substance “afucosylated agalactosylated (G0) palivizumab glycoform (antibody)”, the maximum percent of cells bound in assay [7] was determined as 30%.

As for “afucosylated palivizumab glycoform monogalactosylated at the α3 antenna (G1(3)) (antibody)”, the maximum percent of cells bound in assay [7] worked out at 30%.

As to “FcγRIIIA CD16A low binding (F) variant, National Research Council (Canada) (from UniProt P08637 17-254) (receptor)”, the Kd in assay [1] is 25.6 nM; in assay [2], 60 nM; in assay [3], 25 to 31 nM; in assay [4] it was 60 nM.

As for “digalactosylated afucosylated (G2) palivizumab glycoform (antibody)”, the ADCC reporter assay (Jurkat T-cell luciferase reporter cells, CD16A V variant; RSV-infected Hep2 cells), activity against the G0 glycoform in assay [6] is 2 fold.
